Patent publication US20200407452A1 (published 2020)

Tests used:
[1] = target: T1, native human MET on living cells (human, UniProt P08581 25-1390); assay: FACS, A549 cells
T1 construct: whole, on cells; also called Human cells (A549); A549

[2] = target: T1, native human MET on living cells; assay: cell-based or functional assay
[3] = target: T2, native mouse MET on living cells (mouse, UniProt P16056 25-1379); assay: cell-based or functional assay
[4] = target: T3, human MET ECD (human, UniProt P08581 25-932); assay: ELISA, MET ECD coated, mAb 0-20 nM
T3 construct: range 1-932; recombinant; range as printed includes the signal peptide; also called hMET; hMET ECD
Description: (§1) Production (by transient transfection of mammalian cells) and purification (by protein A affinity chromatography) of the resulting chimeric llama-human IgG1 molecules was outsourced to U-protein Express. Binding of chimeric mAbs to MET was determined by ELISA using hMET or mMET ECD in solid phase and increasing concentrations of antibodies (0-20 nM) in solution. […] Binding capacity (EMAX) varied from antibody to antibody, possibly due to partial epitope exposure in the immobilized antigen, but was similar in the human and mouse setting.

[5] = target: T4, mouse MET ECD (mouse, UniProt P16056 25-931); assay: ELISA, MET ECD coated, mAb 0-20 nM
T4 construct: range 1-931; recombinant; range as printed includes the signal peptide; also called mMET; mMET ECD
Description: as §1

[6] = target: T2, native mouse MET on living cells; assay: FACS, MLP29 cells
[7] = target: human MET ECD mutant E (mutations 2, 3, 4) (human) (UniProt P08581); assay: ELISA, WT or mutant hMET ECD coated
[8] = target: human MET ECD mutant D (mutations 1, 2) (human) (UniProt P08581); assay: ELISA, WT or mutant hMET ECD coated
[9] = target: human MET ECD mutant H (mutations 2, 4) (human) (UniProt P08581); assay: ELISA, WT or mutant hMET ECD coated
[10] = target: human MET ECD mutant A (mutations 1, 2, 3) (human) (UniProt P08581); assay: ELISA, WT or mutant hMET ECD coated
[11] = target: T1, native human MET on living cells; assay: cell-based or functional assay; remark: listed apart in the source
[12] = target: T2, native mouse MET on living cells; assay: cell-based or functional assay; remark: listed apart in the source
[13] = target: T3, human MET ECD; assay: ELISA, WT or mutant hMET ECD coated
Description: Using human MET as a template, we mutagenized each of these residues in different permutations, generating a series of MET mutants that are fully human except for specific residues, which are llama. Next, we tested the affinity of selected SEMA-binding mAbs (71D6, 71C3, 71D4, 71A3, 71G2) and PSI-binding mAbs (76H10 and 71G3) for these MET mutants by ELISA. To this end, the various MET proteins were immobilized in solid phase (100 ng/well in a 96-well plate) and then exposed to increasing concentrations of antibodies (0-50 nM) solution. […] Wild-type human MET was used as positive control.
TABLE 24 The epitopes of MET responsible for agonistic antibody binding represent residues conserved among H. sapiens, M. musculus, R. norvegicus, M. fascicularis but not among the same species and L. glama. The relevance of residues conserved among human, mouse, rat, cynomolgus monkey but not llama MET for binding to agonistic mAbs was tested by ELISA. Wild-type (WT) or mutant (MT) human MET ECD was immobilized in solid phase and exposed to increasing concentrations of mAbs in solution. […] All binding values were normalized to the WT protein and are expressed as % binding (EMAX) compared to WT MET.

[14] = target: T1, native human MET on living cells; assay: cell-based or functional assay; remark: listed apart in the source
[15] = target: T2, native mouse MET on living cells; assay: cell-based or functional assay; remark: listed apart in the source
[16] = target: human MET ECD mutant J (mutations 6, 7) (human) (UniProt P08581); assay: ELISA, WT or mutant hMET ECD coated
[17] = target: human MET ECD mutant I (mutations 6, 7, 8) (human) (UniProt P08581); assay: ELISA, WT or mutant hMET ECD coated

B1: 71G2 chimeric llama-human IgG1 mAb (antibody, V domains shown)
VH: EVQLQESGGGLVQPGGSLRLSCAASGFTFSIYDMSWVRQAPGKGLEWVSTINSDGSSTSYVDSVKGRFTISRDNAKNTLYLQMNSLKPEDTAVYYCAKVYGSTWDVGPMGYGMDYWGKGTLVTVSS
VL: SSALTQPSALSVSLGQTARITCQGGSLGSSYAHWYQQKPGQAPVLVIYGDDSRPSGIPERFSGSSSGGTATLTISGAQAEDEDDYYCQSTDSSGNTVFGGGTRLTVL
notes: human IgG1 CH1-CH2-CH3 and human CL lambda; also called 71G2 Human IgG1/lambda
- EMAX [1]: 137 % CTR
- phospho-MET ELISA EMAX, A549 cells [2]: 101 % HGF activity
- phospho-MET ELISA EMAX, MLP29 cells [3]: 110 % HGF activity
- EMAX [4]: 3.09 OD450 AU
- EMAX [5]: 3.17 OD450 AU
- EMAX [6]: 131 % CTR
- % binding (EMAX) vs WT MET ECD [7]: 41.4%
- % binding (EMAX) vs WT MET ECD [8]: 114%
- % binding (EMAX) vs WT MET ECD [9]: 40.2%
- % binding (EMAX) vs WT MET ECD [10]: 92.1%
- A549 MET act. (EMAX, % HGF) [11]: 106 % HGF
- LOC br. m. (branch n.) [11]: 31.7 branches per spheroid
- MLP29 MET act. (EMAX, % HGF) [12]: 110 % HGF
- MLP29 br. m. (branch n.) [12]: 45 branches per spheroid
- % binding (EMAX) vs WT MET ECD [13]: 100%
- protection from staurosporine-induced apoptosis EC50, MCF10A cells [14]: 1.06 nM
- protection from staurosporine-induced apoptosis EMAX, MCF10A cells [14]: 64.8%
- protection from staurosporine-induced apoptosis EC50, MLP29 cells [15]: 1.99 nM
- protection from staurosporine-induced apoptosis EMAX, MLP29 cells [15]: 58.3%

B2: 71G3 chimeric llama-human IgG1 mAb (antibody, V domains shown)
VH: QVQLVESGGGLVQPGGSLRVSCAASGFTFSTYYMSWVRQAPGKGLEWVSDIRTDGGTYYADSVKGRFTMSRDNAKNTLYLQMNSLKPEDTALYYCARTRIFPSGYDYWGQGTQVTVSS
VL: QAVVTQEPSLSVSPGGTVTLTCGLSSGSVTTSNYPGWFQQTPGQAPRTLIYNTNSRHSGVPSRFSGSISGNKAALTIMGAQPEDEADYYCSLYPGSTTVFGGGTHLTVL
notes: human IgG1 CH1-CH2-CH3 and human CL lambda; also called 71G3 Human IgG1/lambda
- EMAX [1]: 110 % CTR
- phospho-MET ELISA EMAX, A549 cells [2]: 95.7 % HGF activity
- phospho-MET ELISA EMAX, MLP29 cells [3]: 97.8 % HGF activity
- EMAX [4]: 2.83 OD450 AU
- EMAX [5]: 2.98 OD450 AU
- EMAX [6]: 112 % CTR
- % binding (EMAX) vs WT MET ECD [16]: 91.2%
- % binding (EMAX) vs WT MET ECD [17]: 100%
- A549 MET act. (EMAX, % HGF) [11]: 94.3 % HGF
- LOC br. m. (branch n.) [11]: 22.3 branches per spheroid
- MLP29 MET act. (EMAX, % HGF) [12]: 96.8 % HGF
- MLP29 br. m. (branch n.) [12]: 29.3 branches per spheroid
- protection from staurosporine-induced apoptosis EC50, MCF10A cells [14]: 5.04 nM
- protection from staurosporine-induced apoptosis EMAX, MCF10A cells [14]: 65.2%
- protection from staurosporine-induced apoptosis EC50, MLP29 cells [15]: 4.85 nM
- protection from staurosporine-induced apoptosis EMAX, MLP29 cells [15]: 62.3%

B3: 71C3 chimeric llama-human IgG1 mAb (antibody, V domains shown)
VH: QLQLVESGGGLVQPGGSLRLSCAASGFTFSSHAMSWVRQAPGKGLEWVSAINSGGGSTSYADSVKGRFTISRDNAKNTLYLQMNSLKPEDTAVYYCAKELRFDLARYTDYEAWDYWGQGTQVTVSS
VL: SYELTQPSALSVTLGQTAKITCQGGSLGSSYAHWYQQKPGQAPVLVIYDDDSRPSGIPERFSGSSSGGTATLTISGAQAEDEGDYYCQSADSSGNAAVFGGGTHLTVL
notes: human IgG1 CH1-CH2-CH3 and human CL lambda
- phospho-MET ELISA EMAX, A549 cells [2]: 86.2 % HGF activity
- phospho-MET ELISA EMAX, MLP29 cells [3]: 98.8 % HGF activity
- EMAX [4]: 2.46 OD450 AU
- EMAX [5]: 2.24 OD450 AU
- % binding (EMAX) vs WT MET ECD [7]: 59.6%
- % binding (EMAX) vs WT MET ECD [8]: 102%
- % binding (EMAX) vs WT MET ECD [9]: 61.6%
- % binding (EMAX) vs WT MET ECD [10]: 99.8%
- % binding (EMAX) vs WT MET ECD [13]: 100%
- protection from staurosporine-induced apoptosis EC50, MCF10A cells [14]: 31.9 nM
- protection from staurosporine-induced apoptosis EMAX, MCF10A cells [14]: 50.2%
- protection from staurosporine-induced apoptosis EC50, MLP29 cells [15]: 31 nM
- protection from staurosporine-induced apoptosis EMAX, MLP29 cells [15]: 51.3%

B4: 71A3 chimeric llama-human IgG1 mAb (antibody, V domains shown)
VH: EVQLVESGGGLVQPGGSLRLSCAASGFSFKDYDITWVRQAPGKGLEWVSTITSRSGSTSYVDSVKGRFTISGDNAKNTLYLQMNSLKPEDTAVYYCAKVYATTWDVGPLGYGMDYWGKGTLVTVSS
VL: SYELTQPSALSVTLGQTAKITCQGGSLGSSYAHWYQQKPGQAPVLVIYDDDSRPSGIPERFSGSSSGGTATLTISGAQAEDEGDYYCQSADSSGNAAVFGGGTHLTVL
notes: as for B3
- phospho-MET ELISA EMAX, A549 cells [2]: 86.6 % HGF activity
- phospho-MET ELISA EMAX, MLP29 cells [3]: 96 % HGF activity
- EMAX [4]: 2.4 OD450 AU
- EMAX [5]: 2.73 OD450 AU
- % binding (EMAX) vs WT MET ECD [7]: 65.4%
- % binding (EMAX) vs WT MET ECD [8]: 128%
- % binding (EMAX) vs WT MET ECD [9]: 76.7%
- % binding (EMAX) vs WT MET ECD [10]: 117%
- % binding (EMAX) vs WT MET ECD [13]: 100%
- protection from staurosporine-induced apoptosis EC50, MCF10A cells [14]: < 0.5 nM
- protection from staurosporine-induced apoptosis EMAX, MCF10A cells [14]: 71.7%
- protection from staurosporine-induced apoptosis EC50, MLP29 cells [15]: < 0.5 nM
- protection from staurosporine-induced apoptosis EMAX, MLP29 cells [15]: 70.5%

B5: 71D4 chimeric llama-human IgG1 mAb (antibody, V domains shown)
VH: ELQLVESGGGLVQPGGSLRLSCAASGFTFSGYGMSWVRQAPGKGLEWVSDINSGGGSTSYADSVKGRFTISRDNAKNTLYLQMNSLKPEDTAVYYCAKDMRLYLARYNDYEAWDYWGQGTQVTVSS
VL: SSALTQPSALSVTLGQTAKITCQGGSLGSSYAHWYQQKPGQAPVLVIYDDDSRPSGIPERFSGSSSGGTATLTISGAQAEDEGDYYCQSADSSGNAAVFGGGTHLTVL
notes: as for B3
- phospho-MET ELISA EMAX, A549 cells [2]: 84.6 % HGF activity
- phospho-MET ELISA EMAX, MLP29 cells [3]: 95.3 % HGF activity
- EMAX [4]: 1.43 OD450 AU
- EMAX [5]: 1.17 OD450 AU
- % binding (EMAX) vs WT MET ECD [7]: 57.2%
- % binding (EMAX) vs WT MET ECD [8]: 120%
- % binding (EMAX) vs WT MET ECD [9]: 58.7%
- % binding (EMAX) vs WT MET ECD [10]: 114%
- % binding (EMAX) vs WT MET ECD [13]: 100%
- protection from staurosporine-induced apoptosis EC50, MCF10A cells [14]: 30.2 nM
- protection from staurosporine-induced apoptosis EMAX, MCF10A cells [14]: 51.7%
- protection from staurosporine-induced apoptosis EC50, MLP29 cells [15]: 29.8 nM
- protection from staurosporine-induced apoptosis EMAX, MLP29 cells [15]: 52.1%

B6: 76H10 chimeric llama-human IgG1 mAb (antibody, V domains shown)
VH: QLQLVESGGGLVQPGGSLRVSCTASGFTFNTYYMTWVRQAPGKGLEWVSDINSGGGTYYADSVKGRFTISRDNAKNTLYLQMNSLKPEDTALYYCVRVRIWPVGYDYWGQGTQVTVSS
VL: QAVVTQEPSLSVSPGGTVTLTCGLSSGSVTTSNYPGWFQQTPGQAPRTLIYNTNNRHSGVPSRFSGSISGNKAALTITGAQPEDEADYYCSLYTGSYTTVFGGGTHLTVL
notes: as for B3
- phospho-MET ELISA EMAX, A549 cells [2]: 61.2 % HGF activity
- phospho-MET ELISA EMAX, MLP29 cells [3]: 64.1 % HGF activity
- EMAX [4]: 2.67 OD450 AU
- EMAX [5]: 2.66 OD450 AU
- % binding (EMAX) vs WT MET ECD [16]: 89%
- % binding (EMAX) vs WT MET ECD [17]: 100%
- protection from staurosporine-induced apoptosis EC50, MCF10A cells [14]: > 32 nM
- protection from staurosporine-induced apoptosis EMAX, MCF10A cells [14]: 22.8%
- protection from staurosporine-induced apoptosis EC50, MLP29 cells [15]: > 32 nM
- protection from staurosporine-induced apoptosis EMAX, MLP29 cells [15]: 27.2%
